# Reference: IntAct's records for PubMed 24794231
# B1: Cyclin-Y (Homo sapiens), Q8ND76 (parent)
# chain: MGNTTSCCVSSSPKLRRNAHSRLESYRPDTDLSREDTGCNLQHISDRENIDDLNMEFNPSDHPRASTIFLSKSQTDVREKRKSLFINHHPPGQIARKYSSCSTIFLDDSTVSQPNLKYTIKCVALAIYYHIKNRDPDGRMLLDIFDENLHPLSKSEVPPDYDKHNPEQKQIYRFVRTLFSAAQLTAECAIVTLVYLERLLTYAEIDICPANWKRIVLGAILLASKVWDDQAVWNVDYCQILKDITVEDMNELERQFLELLQFNINVPSSVYAKYYFDLRSLAEANNLSFPLEPLSRERAHKLEAISRLCEDKYKDLRRSARKRSASADNLTLPRWSPAIIS
# Variants of: B1
# Settings: with cul1_human CUL1, Q13616
# cul1_human CUL1, Q13616, sequence (Q13616 whole entry): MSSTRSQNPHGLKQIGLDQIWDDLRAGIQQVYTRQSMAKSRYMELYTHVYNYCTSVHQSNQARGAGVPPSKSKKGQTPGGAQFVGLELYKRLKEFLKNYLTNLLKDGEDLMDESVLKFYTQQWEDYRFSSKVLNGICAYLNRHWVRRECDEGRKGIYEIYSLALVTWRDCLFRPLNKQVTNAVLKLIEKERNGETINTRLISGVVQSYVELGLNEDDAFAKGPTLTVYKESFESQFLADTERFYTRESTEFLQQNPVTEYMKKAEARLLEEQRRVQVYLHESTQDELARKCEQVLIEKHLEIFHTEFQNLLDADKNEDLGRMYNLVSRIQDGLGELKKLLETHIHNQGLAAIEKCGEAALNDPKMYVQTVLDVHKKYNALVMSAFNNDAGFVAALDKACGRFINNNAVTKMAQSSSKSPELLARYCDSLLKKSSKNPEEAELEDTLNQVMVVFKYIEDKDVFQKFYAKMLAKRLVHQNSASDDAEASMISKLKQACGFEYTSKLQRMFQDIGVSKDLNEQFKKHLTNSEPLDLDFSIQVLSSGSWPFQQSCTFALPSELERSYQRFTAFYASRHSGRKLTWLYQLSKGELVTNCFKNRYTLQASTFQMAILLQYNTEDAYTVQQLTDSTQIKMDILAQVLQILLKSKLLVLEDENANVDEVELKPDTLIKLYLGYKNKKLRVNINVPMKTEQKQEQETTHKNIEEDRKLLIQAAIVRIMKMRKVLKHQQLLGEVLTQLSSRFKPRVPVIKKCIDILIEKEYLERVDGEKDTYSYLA
row,Variant,effect of a mutation on the interaction
1,MGNTTSCCVSSSPKLRRNAHSRLESYRPDTDLSREDTGCNLQHISDRENIDDLNMEFNPSDHPRASTIFLSKAQTDVREKRKSLFINHHPPGQIARKYSSCSTIFLDDSTVSQPNLKYTIKCVALAIYYHIKNRDPDGRMLLDIFDENLHPLSKSEVPPDYDKHNPEQKQIYRFVRTLFSAAQLTAECAIVTLVYLERLLTYAEIDICPANWKRIVLGAILLASKVWDDQAVWNVDYCQILKDITVEDMNELERQFLELLQFNINVPSSVYAKYYFDLRSLAEANNLSFPLEPLSRERAHKLEAISRLCEDKYKDLRRSARKRSASADNLTLPRWSPAIIS [S73A],decreasing interaction

# Variants of: B1
# Settings: with cul1_human CUL1, Q13616
# Remark: another data set of the same source
row,Variant,effect of a mutation on the interaction
1,MGNTTSCCVSSSPKLRRNAHSRLESYRPDTDLSREDTGCNLQHISDRENIDDLNMEFNPSDHPRASTIFLAKAQTDVREKRKSLFINHHPPGQIARKYSSCSTIFLDDSTVSQPNLKYTIKCVALAIYYHIKNRDPDGRMLLDIFDENLHPLSKSEVPPDYDKHNPEQKQIYRFVRTLFSAAQLTAECAIVTLVYLERLLTYAEIDICPANWKRIVLGAILLASKVWDDQAVWNVDYCQILKDITVEDMNELERQFLELLQFNINVPSSVYAKYYFDLRSLAEANNLSFPLEPLSRERAHKLEAISRLCEDKYKDLRRSARKRSASADNLTLPRWSPAIIS [S71A;S73A],disrupting interaction

# Variants of: B1
# Settings: with cul1_human CUL1, Q13616
# Remark: another data set of the same source
row,Variant,effect of a mutation on the interaction
1,MGNTTSCCVSSSPKLRRNAHSRLESYRPDTDLSREDTGCNLQHISDRENIDDLNMEFNPSDHPRASTIFLAKSQTDVREKRKSLFINHHPPGQIARKYSSCSTIFLDDSTVSQPNLKYTIKCVALAIYYHIKNRDPDGRMLLDIFDENLHPLSKSEVPPDYDKHNPEQKQIYRFVRTLFSAAQLTAECAIVTLVYLERLLTYAEIDICPANWKRIVLGAILLASKVWDDQAVWNVDYCQILKDITVEDMNELERQFLELLQFNINVPSSVYAKYYFDLRSLAEANNLSFPLEPLSRERAHKLEAISRLCEDKYKDLRRSARKRSASADNLTLPRWSPAIIS [S71A],decreasing interaction
